Measured values: the supplement of paper PMC9112550, “Optimization of the antimicrobial peptide Bac7 by deep mutational scanning” (BMC Biology, 2022)

System: Escherichia coli TOP10
Assay: shrunken log2 fold change of peptide-encoding DNA abundance (4.5 h post-induction vs induction); higher = less antimicrobial activity (less host growth inhibition)
Conditions: time post-induction: 4.5 h; library: site-saturation at positions 5, 18, 19, 20
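Note: peptides expressed intracellularly from a pBAD plasmid library in pooled LB shake-flask culture, induced with 0.3% L-arabinose, DNA abundance read by NGS, three biological replicates, DESeq2 with apeglm shrinkage.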

Sequence	shrunken log2 fold change
RRIRLRPPRLPRPRPRPHHHPRP	-0.6
RRIRDRPPRLPRPRPRPDNTPRP	-0.103
RRIRCRPPRLPRPRPRPHDHPRP	-0.307
RRIRIRPPRLPRPRPRPQAWPRP	0.386
RRIRERPPRLPRPRPRPLLHPRP	-0.288
RRIRERPPRLPRPRPRPWKTPRP	0.0324
RRIRDRPPRLPRPRPRPLTFPRP	-0.212
RRIRLRPPRLPRPRPRPMKIPRP	-0.028
RRIRKRPPRLPRPRPRPSTEPRP	0.136
RRIRFRPPRLPRPRPRPIIDPRP	-1.61
RRIRSRPPRLPRPRPRPHHQPRP	-0.61
RRIRTRPPRLPRPRPRPNHHPRP	-0.687
RRIRIRPPRLPRPRPRPLFKPRP	-0.773
RRIRPRPPRLPRPRPRPNDMPRP	-0.208
RRIRYRPPRLPRPRPRPTWRPRP	0.104
RRIRCRPPRLPRPRPRPFMQPRP	-0.402
RRIRYRPPRLPRPRPRPTYNPRP	-1.32
RRIRGRPPRLPRPRPRPRDIPRP	0.373
RRIRSRPPRLPRPRPRPLYCPRP	-0.523
RRIRARPPRLPRPRPRPGVCPRP	0.571
RRIRDRPPRLPRPRPRPHFMPRP	-0.47
RRIRCRPPRLPRPRPRPWIVPRP	-0.0435
RRIRDRPPRLPRPRPRPHLNPRP	-0.152
RRIRPRPPRLPRPRPRPTTKPRP	0.253
RRIRERPPRLPRPRPRPSPLPRP	-0.0982

Sequence	shrunken log2 fold change
RRIRPRPPRLPRPRPRPVRWPRP	0.819
RRIRIRPPRLPRPRPRPFPMPRP	-0.412
RRIRLRPPRLPRPRPRPGQWPRP	0.17
RRIRCRPPRLPRPRPRPMWQPRP	0.183
RRIRDRPPRLPRPRPRPELWPRP	2.17
RRIRYRPPRLPRPRPRPVNRPRP	-0.655
RRIRQRPPRLPRPRPRPFRPPRP	-0.303
RRIRKRPPRLPRPRPRPTNLPRP	-0.0903
RRIRHRPPRLPRPRPRPNAPPRP	0.0964
RRIRARPPRLPRPRPRPGKPPRP	0.154
RRIRARPPRLPRPRPRPDTHPRP	0.0877
RRIRFRPPRLPRPRPRPRVMPRP	0.138
RRIRDRPPRLPRPRPRPGVVPRP	0.708
RRIRYRPPRLPRPRPRPMHFPRP	-0.00783
RRIRWRPPRLPRPRPRPDNDPRP	-0.0628
RRIRWRPPRLPRPRPRPAPMPRP	0.615
RRIRFRPPRLPRPRPRPHAEPRP	-0.00295
RRIRIRPPRLPRPRPRPMQLPRP	3.42
RRIRNRPPRLPRPRPRPTGIPRP	0.0288
RRIRQRPPRLPRPRPRPIVKPRP	-0.108
RRIRNRPPRLPRPRPRPSSIPRP	-0.0475
RRIRIRPPRLPRPRPRPDKFPRP	-0.565
RRIRMRPPRLPRPRPRPAEHPRP	-0.0575
RRIRVRPPRLPRPRPRPYKFPRP	-0.475
RRIRKRPPRLPRPRPRPGDNPRP	0.046

Sequence	shrunken log2 fold change
RRIRTRPPRLPRPRPRPCGLPRP	0.165
RRIRHRPPRLPRPRPRPAGEPRP	-0.0717
RRIRQRPPRLPRPRPRPVEVPRP	-0.0922
RRIRPRPPRLPRPRPRPNARPRP	0.677
RRIRPRPPRLPRPRPRPLMDPRP	-0.145
RRIRGRPPRLPRPRPRPSDMPRP	0.488
RRIRRRPPRLPRPRPRPGFCPRP	0.37
RRIRSRPPRLPRPRPRPVFYPRP	-0.266
RRIRKRPPRLPRPRPRPKPKPRP	0.464
RRIRVRPPRLPRPRPRPDWGPRP	0.184
RRIRFRPPRLPRPRPRPSHTPRP	-0.035
RRIRQRPPRLPRPRPRPIEPPRP	-0.0381
RRIRVRPPRLPRPRPRPSNIPRP	-0.526
RRIRRRPPRLPRPRPRPTIQPRP	0.144
RRIRLRPPRLPRPRPRPKEVPRP	-0.147
RRIRQRPPRLPRPRPRPELCPRP	0.177
RRIRLRPPRLPRPRPRPWIDPRP	-0.0305
RRIRPRPPRLPRPRPRPGFDPRP	0.131
RRIRFRPPRLPRPRPRPATCPRP	0.00724
RRIRTRPPRLPRPRPRPWLIPRP	0.00287
RRIRFRPPRLPRPRPRPINLPRP	-0.291
RRIRQRPPRLPRPRPRPDGNPRP	-0.26
RRIRFRPPRLPRPRPRPIWRPRP	0.248
RRIRHRPPRLPRPRPRPGKIPRP	-0.769
RRIRLRPPRLPRPRPRPQHAPRP	-0.0395

Sequence	shrunken log2 fold change
RRIRNRPPRLPRPRPRPMWRPRP	-0.0211
RRIRERPPRLPRPRPRPHYMPRP	-0.0919
RRIRSRPPRLPRPRPRPVKQPRP	0.0733
RRIRERPPRLPRPRPRPDSVPRP	-0.17
RRIRCRPPRLPRPRPRPFGKPRP	-0.0592
RRIRKRPPRLPRPRPRPHQLPRP	0.0824
RRIRGRPPRLPRPRPRPSEFPRP	0.122
RRIRQRPPRLPRPRPRPNRYPRP	-0.0216
RRIRARPPRLPRPRPRPEHGPRP	0.0464
RRIRGRPPRLPRPRPRPFVTPRP	0.0292
RRIRKRPPRLPRPRPRPTMRPRP	1.02
RRIRIRPPRLPRPRPRPQLYPRP	-0.303
RRIRVRPPRLPRPRPRPELHPRP	0.133
RRIRVRPPRLPRPRPRPRPVPRP	0.515
RRIRDRPPRLPRPRPRPTYIPRP	-0.393
RRIRPRPPRLPRPRPRPFGWPRP	0.328
RRIRTRPPRLPRPRPRPITEPRP	-0.183
RRIRARPPRLPRPRPRPANQPRP	0.0465
RRIRERPPRLPRPRPRPNNDPRP	-0.663
RRIRGRPPRLPRPRPRPSAFPRP	1.1
RRIRRRPPRLPRPRPRPNGRPRP	-0.0152
RRIRFRPPRLPRPRPRPQPAPRP	0.652
RRIRKRPPRLPRPRPRPIYDPRP	-0.0349
RRIRSRPPRLPRPRPRPCCDPRP	-0.284
RRIRWRPPRLPRPRPRPFVFPRP	-0.0764

Sequence	shrunken log2 fold change
RRIRDRPPRLPRPRPRPFMWPRP	-0.102
RRIRYRPPRLPRPRPRPGEKPRP	0.0799
RRIRHRPPRLPRPRPRPPMSPRP	0.0891
RRIRARPPRLPRPRPRPYQFPRP	-0.34
RRIRPRPPRLPRPRPRPQDDPRP	-0.367
RRIRKRPPRLPRPRPRPTCHPRP	0.169
RRIRYRPPRLPRPRPRPGHIPRP	0.0162
RRIRSRPPRLPRPRPRPEAFPRP	-0.0131
RRIRSRPPRLPRPRPRPFGFPRP	-0.137
RRIRGRPPRLPRPRPRPWGLPRP	0.0474
RRIRFRPPRLPRPRPRPCDYPRP	-0.112
RRIRARPPRLPRPRPRPEFLPRP	0.465
RRIRGRPPRLPRPRPRPDKWPRP	0.243
RRIRGRPPRLPRPRPRPRHWPRP	0.439
RRIRGRPPRLPRPRPRPHLDPRP	0.34
RRIRKRPPRLPRPRPRPMTYPRP	-0.212
RRIRKRPPRLPRPRPRPRGPPRP	1.23
RRIRHRPPRLPRPRPRPKCGPRP	0.0031
RRIRNRPPRLPRPRPRPKCSPRP	0.0607
RRIRQRPPRLPRPRPRPKQSPRP	-0.0143
RRIRSRPPRLPRPRPRPASNPRP	-0.101
RRIRGRPPRLPRPRPRPCSDPRP	0.0118
RRIRTRPPRLPRPRPRPIQRPRP	0.0582
RRIRKRPPRLPRPRPRPNLCPRP	0.118
RRIRIRPPRLPRPRPRPRVMPRP	0.0377
